B1: Amyloid beta A4 precursor protein-binding family B member 1-interacting protein (Mus musculus), Q8R5A3 (parent)
chain: MGESNEDIDQMFSTLLGEMDLLTQSLGVDTLPPPDPNPPREEFNYTVGFKDLNESLNALEDQDLDALMADLVADISEAEQRTIQAQKESSQNQDRFALLRASDGQGTASGGYGASAAAIDVSHHEEALPPPPVEPMLDLLPPPPPPPPPELLSKEEEEAKAKADKIKLALEKLKEAKVKKLVVKVHMDDSSTKSLMVDERQLARDVLDNLFEKTHCDCNVDWCLYEIYPELQIERVFEDHENVVEVLSDWTRDTENKVLFLEKEERYAVFKNPQNFYLDNKGKKENKETNEKMNAKNKEYLLEESFCGTSIIVPELEGALYLKEDGKKSWKRRYFLLRASGIYYVPKGKTKTSRDLACFIQFENVNIYYGIQCKMKYKAPTDHCFVLKHPQIQKESQYIKYLCCDDARTLSQWVMGIRIAKYGKTLYDNYQRAVARAGLASRWTNLGTVGTPMPAQPSTVSSGLKTGTSQPNGQMPQAIPSAGPPLQEAQTQIETTKDEKQGLGNHSPGATRENHRPKSSLPPPPPPVRRSSDTCGSPALPSKVKGPGTCTFPHPPENFLPPPPPPPPEEDNSGLLPPPPPPPYLEEPPDFVPPPPPPAAVEDSALPPPPPPPPCLSQEITKSSPLPPKKPLVPPKRQENQGLPGAPGNSEQDFMSDLMKALQKKRGNIP
B2: Ras-associated and pleckstrin homology domains-containing protein 1 (Homo sapiens), Q70E73 (parent)
chain: MEQLSDEEIDHGAEEDSDKEDQDLDKMFGAWLGELDKLTQSLDSDKPMEPVKRSPLRQETNMANFSYRFSIYNLNEALNQGETVDLDALMADLCSIEQELSSIGSGNSKRQITETKATQKLPVSRHTLKHGTLKGLSSSSNRIAKPSHASYSLDDVTAQLEQASLSMDEAAQQSVLEDTKPLVTNQHRRTASAGTVSDAEVHSISNSSHSSITSAASSMDSLDIDKVTRPQELDLTHQGQPITEEEQAAKLKAEKIRVALEKIKEAQVKKLVIRVHMSDDSSKTMMVDERQTVRQVLDNLMDKSHCGYSLDWSLVETVSELQMERIFEDHENLVENLLNWTRDSQNKLIFMERIEKYALFKNPQNYLLGKKETAEMADRNKEVLLEECFCGSSVTVPEIEGVLWLKDDGKKSWKKRYFLLRASGIYYVPKGKAKVSRDLVCFLQLDHVNVYYGQDYRNKYKAPTDYCLVLKHPQIQKKSQYIKYLCCDDVRTLHQWVNGIRIAKYGKQLYMNYQEALKRTESAYDWTSLSSSSIKSGSSSSSIPESQSNHSNQSDSGVSDTQPAGHVRSQSIVSSVFSEAWKRGTQLEESSKARMESMNRPYTSLVPPLSPQPKIVTPYTASQPSPPLPPPPPPPPPPPPPPPPPPPPLPSQSAPSAGSAAPMFVKYSTITRLQNASQHSGALFKPPTPPVMQSQSVKPQILVPPNGVVPPPPPPPPPPTPGSAMAQLKPAPCAPSLPQFSAPPPPLKIHQVQHITQVAPPTPPPPPPIPAPLPPQAPPKPLVTIPAPTSTKTVAPVVTQAAPPTPTPPVPPAKKQPAFPASYIPPSPPTPPVPVPPPTLPKQQSFCAKPPPSPLSPVPSVVKQIASQFPPPPTPPAMESQPLKPVPANVAPQSPPAVKAKPKWQPSSIPVPSPDFPPPPPESSLVFPPPPPSPVPAPPPPPPPTASPTPDKSGSPGKKTSKTSSPGGKKPPPTPQRNSSIKSSSGAEHPEPKRPSVDSLVSKFTPPAESGSPSKETLPPPAAPPKPGKLNLSGVNLPGVLQQGCVSAKAPVLSGRGKDSVVEFPSPPSDSDFPPPPPETELPLPPIEIPAVFSGNTSPKVAVVNPQPQQWSKMSVKKAPPPTRPKRNDSTRLTQAEISEQPTMATVVPQVPTSPKSSLSVQPGFLADLNRTLQRKSITRHGSLSSRMSRAEPTATMDDMALPPPPPELLSDQQKAGYGGSHISGYATLRRGPPPAPPKRDQNTKLSRDW

Variants of: B1
Conditions: with tln1_mouse Tln1, P26039
Chain of tln1_mouse Tln1, P26039 (P26039 whole entry): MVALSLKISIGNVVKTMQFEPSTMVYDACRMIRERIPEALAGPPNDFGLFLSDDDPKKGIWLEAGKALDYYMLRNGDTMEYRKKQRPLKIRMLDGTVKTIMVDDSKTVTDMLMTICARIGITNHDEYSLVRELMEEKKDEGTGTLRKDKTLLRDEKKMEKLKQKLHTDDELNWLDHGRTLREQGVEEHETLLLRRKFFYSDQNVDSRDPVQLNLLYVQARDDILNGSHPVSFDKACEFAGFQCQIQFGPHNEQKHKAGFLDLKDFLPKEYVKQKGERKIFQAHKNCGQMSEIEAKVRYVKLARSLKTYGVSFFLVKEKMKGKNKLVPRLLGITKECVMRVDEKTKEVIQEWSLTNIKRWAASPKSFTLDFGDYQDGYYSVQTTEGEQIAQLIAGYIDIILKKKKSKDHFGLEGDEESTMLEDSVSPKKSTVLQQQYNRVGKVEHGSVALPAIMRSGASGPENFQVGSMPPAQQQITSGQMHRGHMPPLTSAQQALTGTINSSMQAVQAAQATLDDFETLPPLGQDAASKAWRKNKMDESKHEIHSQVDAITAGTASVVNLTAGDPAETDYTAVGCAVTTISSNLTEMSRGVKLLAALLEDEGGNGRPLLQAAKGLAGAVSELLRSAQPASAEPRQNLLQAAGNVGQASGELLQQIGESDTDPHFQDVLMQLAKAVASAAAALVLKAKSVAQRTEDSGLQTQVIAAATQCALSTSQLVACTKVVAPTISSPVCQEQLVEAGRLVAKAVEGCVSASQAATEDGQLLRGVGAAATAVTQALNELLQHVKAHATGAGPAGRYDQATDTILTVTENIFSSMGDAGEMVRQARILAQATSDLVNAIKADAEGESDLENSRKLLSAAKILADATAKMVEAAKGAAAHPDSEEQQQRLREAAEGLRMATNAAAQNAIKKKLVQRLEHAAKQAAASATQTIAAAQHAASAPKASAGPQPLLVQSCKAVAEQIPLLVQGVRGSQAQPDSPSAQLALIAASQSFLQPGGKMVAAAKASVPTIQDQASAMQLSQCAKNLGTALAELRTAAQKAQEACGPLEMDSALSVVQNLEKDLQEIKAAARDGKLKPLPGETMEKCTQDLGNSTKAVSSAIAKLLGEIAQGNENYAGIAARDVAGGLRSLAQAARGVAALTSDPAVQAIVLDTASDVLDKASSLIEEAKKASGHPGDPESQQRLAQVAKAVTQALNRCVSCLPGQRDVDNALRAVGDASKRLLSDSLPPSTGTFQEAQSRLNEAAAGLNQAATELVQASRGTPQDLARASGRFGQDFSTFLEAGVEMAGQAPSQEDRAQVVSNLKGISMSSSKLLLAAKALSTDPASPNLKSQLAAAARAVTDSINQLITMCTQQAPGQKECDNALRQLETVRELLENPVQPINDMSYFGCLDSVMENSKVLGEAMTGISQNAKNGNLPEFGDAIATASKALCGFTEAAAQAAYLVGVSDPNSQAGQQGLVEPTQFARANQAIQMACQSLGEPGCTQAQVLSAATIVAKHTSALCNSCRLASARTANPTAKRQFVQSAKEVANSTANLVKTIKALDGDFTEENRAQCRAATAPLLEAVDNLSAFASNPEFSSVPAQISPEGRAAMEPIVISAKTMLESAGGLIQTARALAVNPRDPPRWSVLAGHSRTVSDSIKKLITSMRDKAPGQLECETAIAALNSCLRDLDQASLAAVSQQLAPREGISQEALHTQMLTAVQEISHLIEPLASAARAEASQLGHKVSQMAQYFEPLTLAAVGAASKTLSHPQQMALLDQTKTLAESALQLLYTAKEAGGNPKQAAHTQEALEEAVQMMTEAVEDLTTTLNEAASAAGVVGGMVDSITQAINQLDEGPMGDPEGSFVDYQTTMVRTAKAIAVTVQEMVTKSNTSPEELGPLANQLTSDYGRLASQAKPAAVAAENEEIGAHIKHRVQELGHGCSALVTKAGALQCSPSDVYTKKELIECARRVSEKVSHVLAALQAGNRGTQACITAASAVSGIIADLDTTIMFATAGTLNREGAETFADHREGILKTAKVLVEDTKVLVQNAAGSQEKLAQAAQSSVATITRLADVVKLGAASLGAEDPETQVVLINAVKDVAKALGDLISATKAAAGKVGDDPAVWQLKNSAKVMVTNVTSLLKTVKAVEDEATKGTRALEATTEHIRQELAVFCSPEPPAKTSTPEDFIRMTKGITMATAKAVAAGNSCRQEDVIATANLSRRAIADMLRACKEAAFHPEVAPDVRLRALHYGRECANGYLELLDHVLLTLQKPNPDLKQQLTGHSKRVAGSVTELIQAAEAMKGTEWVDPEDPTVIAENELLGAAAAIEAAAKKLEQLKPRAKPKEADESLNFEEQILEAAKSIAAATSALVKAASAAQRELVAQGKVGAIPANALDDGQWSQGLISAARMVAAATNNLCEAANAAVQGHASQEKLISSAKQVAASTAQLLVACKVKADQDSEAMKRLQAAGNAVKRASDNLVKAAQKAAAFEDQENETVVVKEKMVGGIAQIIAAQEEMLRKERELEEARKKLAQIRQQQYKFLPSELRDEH

| Variant | effect of a mutation on the interaction |
| --- | --- |
| L15Y | disrupting interaction strength |
| D9A | decreasing interaction strength |
| S13G | disrupting interaction strength |
| E18A | disrupting interaction strength |

Variants of: B1
Conditions: with tln1_mouse Tln1, P26039
Remark: another data set of the same source

| Variant | effect of a mutation on the interaction |
| --- | --- |
| S13G | decreasing interaction strength |

Variants of: B2
Conditions: with tln1_mouse Tln1, P26039

| Variant | effect of a mutation on the interaction |
| --- | --- |
| G29S | increasing interaction strength |

Reference: IntAct's records for PubMed 25465129
